Numbered stars: 1 amine (or outer) side, 2 acyl side, 3 side chain; on linkers, the order of the positions; unused ones are H or OH. Bridge positions count the residues as written; N and C are the ends. Side chains are listed from the residue outwards. Ends that are not written are not given here. * marks the point of attachment. C20 diacid = O=C(O)CCCCCCCCCCCCCCCCCCC(=O)*; C16 diacid = O=C(O)CCCCCCCCCCCCCCC(=O)*; γGlu = O=C(O)[C@H](CCC(=O)[*:2])N[*:1]; C14 diacid = O=C(O)CCCCCCCCCCCCC(=O)*
T1: human calcitonin receptor (human, UniProt P30988 25-474)
T1 construct: whole, on cells; also called hCTR; hCT
T1 sequence (looked up): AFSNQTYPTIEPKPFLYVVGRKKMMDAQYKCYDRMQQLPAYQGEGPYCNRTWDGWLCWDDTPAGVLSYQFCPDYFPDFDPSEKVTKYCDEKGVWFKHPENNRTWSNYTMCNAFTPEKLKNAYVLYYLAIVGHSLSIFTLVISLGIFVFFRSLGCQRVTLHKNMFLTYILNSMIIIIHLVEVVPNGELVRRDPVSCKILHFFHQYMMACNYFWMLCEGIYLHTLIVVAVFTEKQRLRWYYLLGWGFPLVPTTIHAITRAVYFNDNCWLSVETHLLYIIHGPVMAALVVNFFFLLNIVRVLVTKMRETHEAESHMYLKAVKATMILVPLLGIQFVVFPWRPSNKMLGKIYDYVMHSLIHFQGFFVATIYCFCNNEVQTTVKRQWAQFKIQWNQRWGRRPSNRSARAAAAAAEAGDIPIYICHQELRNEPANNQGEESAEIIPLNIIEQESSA

B1: N^-1-[(4S)-4-carboxy-4-(19-carboxynonadecanoylamino)butanoyl]-Gly[Arg1,His14,Arg17,Pro21,Pro27,His34]-h-amylin (peptide)
peptide: {C20 diacid-γGlu}-GRCNTATCATQRLAHFLRHSSPNFGAIPSSTNVGHNTY-NH2
modifications: disulfide 3-8
SMILES: CC[C@H](C)[C@H](NC(=O)[C@H](C)NC(=O)CNC(=O)[C@H](Cc1ccccc1)NC(=O)[C@H](CC(N)=O)NC(=O)[C@@H]1CCCN1C(=O)[C@H](CO)NC(=O)[C@H](CO)NC(=O)[C@H](Cc1c[nH]cn1)NC(=O)[C@H](CCCNC(=N)N)NC(=O)[C@H](CC(C)C)NC(=O)[C@H](Cc1ccccc1)NC(=O)[C@H](Cc1c[nH]cn1)NC(=O)[C@H](C)NC(=O)[C@H](CC(C)C)NC(=O)[C@H](CCCNC(=N)N)NC(=O)[C@H](CCC(N)=O)NC(=O)[C@@H](NC(=O)[C@H](C)NC(=O)[C@@H]1CSSC[C@H](NC(=O)[C@H](CCCNC(=N)N)NC(=O)CNC(=O)CC[C@H](NC(=O)CCCCCCCCCCCCCCCCCCC(=O)O)C(=O)O)C(=O)N[C@@H](CC(N)=O)C(=O)N[C@@H]([C@@H](C)O)C(=O)N[C@@H](C)C(=O)N[C@@H]([C@@H](C)O)C(=O)N1)[C@@H](C)O)C(=O)N1CCC[C@H]1C(=O)N[C@@H](CO)C(=O)N[C@@H](CO)C(=O)N[C@H](C(=O)N[C@@H](CC(N)=O)C(=O)N[C@H](C(=O)NCC(=O)N[C@@H](Cc1c[nH]cn1)C(=O)N[C@@H](CC(N)=O)C(=O)N[C@H](C(=O)N[C@@H](Cc1ccc(O)cc1)C(N)=O)[C@@H](C)O)C(C)C)[C@@H](C)O
notes: also called compound 100
B2: N^-1-[(4S)-4-carboxy-4-(19-carboxynonadecanoylamino)butanoyl]-Gly[Arg1,His14,Arg17,Pro21,Pro27,Pro34]-h-amylin (peptide)
peptide: {C20 diacid-γGlu}-GRCNTATCATQRLAHFLRHSSPNFGAIPSSTNVGPNTY-NH2
modifications: disulfide 3-8
SMILES: CC[C@H](C)[C@H](NC(=O)[C@H](C)NC(=O)CNC(=O)[C@H](Cc1ccccc1)NC(=O)[C@H](CC(N)=O)NC(=O)[C@@H]1CCCN1C(=O)[C@H](CO)NC(=O)[C@H](CO)NC(=O)[C@H](Cc1c[nH]cn1)NC(=O)[C@H](CCCNC(=N)N)NC(=O)[C@H](CC(C)C)NC(=O)[C@H](Cc1ccccc1)NC(=O)[C@H](Cc1c[nH]cn1)NC(=O)[C@H](C)NC(=O)[C@H](CC(C)C)NC(=O)[C@H](CCCNC(=N)N)NC(=O)[C@H](CCC(N)=O)NC(=O)[C@@H](NC(=O)[C@H](C)NC(=O)[C@@H]1CSSC[C@H](NC(=O)[C@H](CCCNC(=N)N)NC(=O)CNC(=O)CC[C@H](NC(=O)CCCCCCCCCCCCCCCCCCC(=O)O)C(=O)O)C(=O)N[C@@H](CC(N)=O)C(=O)N[C@@H]([C@@H](C)O)C(=O)N[C@@H](C)C(=O)N[C@@H]([C@@H](C)O)C(=O)N1)[C@@H](C)O)C(=O)N1CCC[C@H]1C(=O)N[C@@H](CO)C(=O)N[C@@H](CO)C(=O)N[C@H](C(=O)N[C@@H](CC(N)=O)C(=O)N[C@H](C(=O)NCC(=O)N1CCC[C@H]1C(=O)N[C@@H](CC(N)=O)C(=O)N[C@H](C(=O)N[C@@H](Cc1ccc(O)cc1)C(N)=O)[C@@H](C)O)C(C)C)[C@@H](C)O
B3: N^-1-[(4S)-4-carboxy-4-(19-carboxynonadecanoylamino)butanoyl]-Gly[Arg1,Ala14,Arg17,Pro21,Pro27,His34]-h-amylin (peptide)
peptide: {C20 diacid-γGlu}-GRCNTATCATQRLAAFLRHSSPNFGAIPSSTNVGHNTY-NH2
modifications: disulfide 3-8
SMILES: CC[C@H](C)[C@H](NC(=O)[C@H](C)NC(=O)CNC(=O)[C@H](Cc1ccccc1)NC(=O)[C@H](CC(N)=O)NC(=O)[C@@H]1CCCN1C(=O)[C@H](CO)NC(=O)[C@H](CO)NC(=O)[C@H](Cc1c[nH]cn1)NC(=O)[C@H](CCCNC(=N)N)NC(=O)[C@H](CC(C)C)NC(=O)[C@H](Cc1ccccc1)NC(=O)[C@H](C)NC(=O)[C@H](C)NC(=O)[C@H](CC(C)C)NC(=O)[C@H](CCCNC(=N)N)NC(=O)[C@H](CCC(N)=O)NC(=O)[C@@H](NC(=O)[C@H](C)NC(=O)[C@@H]1CSSC[C@H](NC(=O)[C@H](CCCNC(=N)N)NC(=O)CNC(=O)CC[C@H](NC(=O)CCCCCCCCCCCCCCCCCCC(=O)O)C(=O)O)C(=O)N[C@@H](CC(N)=O)C(=O)N[C@@H]([C@@H](C)O)C(=O)N[C@@H](C)C(=O)N[C@@H]([C@@H](C)O)C(=O)N1)[C@@H](C)O)C(=O)N1CCC[C@H]1C(=O)N[C@@H](CO)C(=O)N[C@@H](CO)C(=O)N[C@H](C(=O)N[C@@H](CC(N)=O)C(=O)N[C@H](C(=O)NCC(=O)N[C@@H](Cc1c[nH]cn1)C(=O)N[C@@H](CC(N)=O)C(=O)N[C@H](C(=O)N[C@@H](Cc1ccc(O)cc1)C(N)=O)[C@@H](C)O)C(C)C)[C@@H](C)O
B4: N{-1}-[(4S)-4-carboxy-4-(19-carboxynonadecanoylamino)butanoyl]-Gly[Arg1,His14,Arg17,Pro21,Pro27]-h-amylin (peptide)
peptide: {C20 diacid-γGlu}-GRCNTATCATQRLAHFLRHSSPNFGAIPSSTNVGSNTY-NH2
modifications: disulfide 3-8
SMILES: CC[C@H](C)[C@H](NC(=O)[C@H](C)NC(=O)CNC(=O)[C@H](Cc1ccccc1)NC(=O)[C@H](CC(N)=O)NC(=O)[C@@H]1CCCN1C(=O)[C@H](CO)NC(=O)[C@H](CO)NC(=O)[C@H](Cc1c[nH]cn1)NC(=O)[C@H](CCCNC(=N)N)NC(=O)[C@H](CC(C)C)NC(=O)[C@H](Cc1ccccc1)NC(=O)[C@H](Cc1c[nH]cn1)NC(=O)[C@H](C)NC(=O)[C@H](CC(C)C)NC(=O)[C@H](CCCNC(=N)N)NC(=O)[C@H](CCC(N)=O)NC(=O)[C@@H](NC(=O)[C@H](C)NC(=O)[C@@H]1CSSC[C@H](NC(=O)[C@H](CCCNC(=N)N)NC(=O)CNC(=O)CC[C@H](NC(=O)CCCCCCCCCCCCCCCCCCC(=O)O)C(=O)O)C(=O)N[C@@H](CC(N)=O)C(=O)N[C@@H]([C@@H](C)O)C(=O)N[C@@H](C)C(=O)N[C@@H]([C@@H](C)O)C(=O)N1)[C@@H](C)O)C(=O)N1CCC[C@H]1C(=O)N[C@@H](CO)C(=O)N[C@@H](CO)C(=O)N[C@H](C(=O)N[C@@H](CC(N)=O)C(=O)N[C@H](C(=O)NCC(=O)N[C@@H](CO)C(=O)N[C@@H](CC(N)=O)C(=O)N[C@H](C(=O)N[C@@H](Cc1ccc(O)cc1)C(N)=O)[C@@H](C)O)C(C)C)[C@@H](C)O
notes: also called compound 99
B5: N^ε1-[(4S)-4-carboxy-4-(13-carboxytridecanoylamino)butanoyl]-[Arg17,Pro21,Pro27,His34]-h-amylin (peptide)
peptide: K([γGlu-C14 diacid])CNTATCATQRLANFLRHSSPNFGAIPSSTNVGHNTY-NH2
modifications: disulfide 2-7; N-terminus assumed
SMILES: CC[C@H](C)[C@H](NC(=O)[C@H](C)NC(=O)CNC(=O)[C@H](Cc1ccccc1)NC(=O)[C@H](CC(N)=O)NC(=O)[C@@H]1CCCN1C(=O)[C@H](CO)NC(=O)[C@H](CO)NC(=O)[C@H](Cc1c[nH]cn1)NC(=O)[C@H](CCCNC(=N)N)NC(=O)[C@H](CC(C)C)NC(=O)[C@H](Cc1ccccc1)NC(=O)[C@H](CC(N)=O)NC(=O)[C@H](C)NC(=O)[C@H](CC(C)C)NC(=O)[C@H](CCCNC(=N)N)NC(=O)[C@H](CCC(N)=O)NC(=O)[C@@H](NC(=O)[C@H](C)NC(=O)[C@@H]1CSSC[C@H](NC(=O)[C@@H](N)CCCCNC(=O)CC[C@H](NC(=O)CCCCCCCCCCCCC(=O)O)C(=O)O)C(=O)N[C@@H](CC(N)=O)C(=O)N[C@@H]([C@@H](C)O)C(=O)N[C@@H](C)C(=O)N[C@@H]([C@@H](C)O)C(=O)N1)[C@@H](C)O)C(=O)N1CCC[C@H]1C(=O)N[C@@H](CO)C(=O)N[C@@H](CO)C(=O)N[C@H](C(=O)N[C@@H](CC(N)=O)C(=O)N[C@H](C(=O)NCC(=O)N[C@@H](Cc1c[nH]cn1)C(=O)N[C@@H](CC(N)=O)C(=O)N[C@H](C(=O)N[C@@H](Cc1ccc(O)cc1)C(N)=O)[C@@H](C)O)C(C)C)[C@@H](C)O
B6: N^ε1-[(4S)-4-carboxy-4-(15-carboxypentadecanoylamino)butanoyl]-[Arg17,Pro21,Pro27,His34]-h-amylin (peptide)
peptide: K([γGlu-C16 diacid])CNTATCATQRLANFLRHSSPNFGAIPSSTNVGHNTY-NH2
modifications: disulfide 2-7; N-terminus assumed
SMILES: CC[C@H](C)[C@H](NC(=O)[C@H](C)NC(=O)CNC(=O)[C@H](Cc1ccccc1)NC(=O)[C@H](CC(N)=O)NC(=O)[C@@H]1CCCN1C(=O)[C@H](CO)NC(=O)[C@H](CO)NC(=O)[C@H](Cc1c[nH]cn1)NC(=O)[C@H](CCCNC(=N)N)NC(=O)[C@H](CC(C)C)NC(=O)[C@H](Cc1ccccc1)NC(=O)[C@H](CC(N)=O)NC(=O)[C@H](C)NC(=O)[C@H](CC(C)C)NC(=O)[C@H](CCCNC(=N)N)NC(=O)[C@H](CCC(N)=O)NC(=O)[C@@H](NC(=O)[C@H](C)NC(=O)[C@@H]1CSSC[C@H](NC(=O)[C@@H](N)CCCCNC(=O)CC[C@H](NC(=O)CCCCCCCCCCCCCCC(=O)O)C(=O)O)C(=O)N[C@@H](CC(N)=O)C(=O)N[C@@H]([C@@H](C)O)C(=O)N[C@@H](C)C(=O)N[C@@H]([C@@H](C)O)C(=O)N1)[C@@H](C)O)C(=O)N1CCC[C@H]1C(=O)N[C@@H](CO)C(=O)N[C@@H](CO)C(=O)N[C@H](C(=O)N[C@@H](CC(N)=O)C(=O)N[C@H](C(=O)NCC(=O)N[C@@H](Cc1c[nH]cn1)C(=O)N[C@@H](CC(N)=O)C(=O)N[C@H](C(=O)N[C@@H](Cc1ccc(O)cc1)C(N)=O)[C@@H](C)O)C(C)C)[C@@H](C)O

target: T1, human calcitonin receptor; test: SPA radioligand competition (125I-calcitonin), membranes of BHK cells with human calcitonin receptor
How it was run: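 BHK hCTR membranes 35 ng/μL + SPA beads 0.05 mg/well; buffer 50 mM Hepes pH 7.4, 1 mM CaCl2, 5 mM MgCl₂, 0.1% OA, 0.02% Tween20. 120 min, 25° C., shaking. Scintillation count; IC50 by one-site binding competition.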

Row | IC50 | Binder
1 | 66.3 nM | B1
2 | 3 nM | {C20 diacid-γGlu}-GRCNTATCATQRLAAFLRHSSPNFGAIPSSTNVGPNTY-NH2 (disulfide 3-8)
3 | 7.87 nM | B2
4 | 29.2 nM | B3
5 | 35 nM | B4
6 | 24.3 nM | B5
7 | 10.8 nM | B6

target: T1, human calcitonin receptor; test: ratio of IC50 at human calcitonin receptor to IC50 at human amylin receptor (SPA competition assays)
How it was run: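 Membranes (35 ng/μL final) + SPA beads, 50 mM Hepes pH 7.4 buffer with 1 mM CaCl2, 5 mM MgCl₂, 0.1% OA, 0.02% Tween20; 120 min, 25° C, shaking; centrifuged, counted; IC₅₀ by one-site binding competition.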

Row | Ratio hCT/hAmylin binding | Binder
8 | 65.3 | B1
9 | 26.5 | {C20 diacid-γGlu}-GRCNTATCATQRLAAFLRHSSPNFGAIPSSTNVGPNTY-NH2 (disulfide 3-8)
10 | 36.2 | B2
11 | 68.6 | B3
12 | 100 | B4
13 | 23.5 | B5
14 | 18.5 | B6
